Measured values published in the supplement of paper PMC9170038.

Tested on: K4 kissing-loop RNA reporter
Assay: apparent KD of K4 kissing-loop reporter; higher = weaker reporter binding
Conditions: Eterna round: R107
Description: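 RNA-MaP round R107: designed RNA switches with theophylline, tryptophan, arginine or FMN aptamers are transcribed on-chip within common flanks. They are titrated with a labelled K4 kissing-loop RNA reporter in RNA-MaP buffer (100 mM Tris pH 7.5, 80 mM KCl, 4 mM MgCl2), without ligand or with the indicated ligand. Median apparent KD per design.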

[1] = input ligand: theophylline 20 uM
[2] = input ligand: tryptophan 2.4 mM
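Also: bound reporter read as fluorescence of individual clusters on recovered sequencing chips by microscopy, with normalized cluster intensities fitted with a binding model.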

Row | Sequence | apparent KD of K4 kissing-loop reporter (input ligand: FMN 200 uM) [nM] | apparent KD of K4 kissing-loop reporter (input ligand: arginine 13.2 mM) [nM] | apparent KD of K4 kissing-loop reporter (input ligand: none) [nM] | apparent KD of K4 kissing-loop reporter [1] [nM] | apparent KD of K4 kissing-loop reporter [2] [nM]
1 | UGUCAUUGGUCGGCCGCCACUUCAAAAGGUCAAAGACCAGAGUGAUGUUCUUCACGAAACGUGAGAAGGACCGGGACCGAUGACU [TrypBS 12 #SwitchBubble #K4Middle] | 226 | 123 | 191 | 266 | 638
2 | UGUCAUUGGUCGGCCGCCACUUCAAGGUCAAAGACCAAAGAGUGAUGUUCUUAGACGAAAGUCAGAAGGACCGGGACCGAUGACU [TrypBS 9 #SwitchBubble #K4Middle] | 318 | 144 | 204 | 245 | 727
3 | UGUCAUUGGUCGGCCGCCACUUCAUAGAGAGUGAUGUUCUUAAAGACGGAUCGAAAGAUCUGUCGAAGGACCGGGACCGAUGACU [FiskerMod 9 - Jieux - Same State - Tryptophan B] | 997 | 676 | 1400 | 783 | 302
4 | UGUCAUUGGUCGGCCGCCACUUCGUGUAGAGUGAUGUUUUGUAGGACGGAUCGAAAGAUCUGUCGAAGGACCGGGACCGAUGACU [FiskerMod 18 - Jieux - Same State - Tryptophan B] | 500 | 189 | 459 | 336 | 1100
5 | UGUCUUCAGUGAUGUUGAUGACAACACUUAAAGGAUAUGCGAGAGAGCAGAAGGUUAAACAACGCGCAAAUCAAGGAGGGUCUAG [theeternabot_exclusion_KL_FMN_A_30] | 193 | 161 | 178 | 196 | 174
6 | UGUGAACAAAAGUAGAGUGGACCACUAUAGCGAGGACCGGUACGGCCGCCACUCGUGUAUGAAUUCAGUGAUGUUGAAAAGAGCU [whbob_EX_Tryp_A_t11] | 131 | 187 | 138 | 254 | 134
7 | UGUGCCAAAUGUGAUACCAGCUUCCUGCAGUGAUGUUGCAUACGAGUGAUGUUCGUCCGAGGCCCUUGGCAGCGCAGUCGUUUGA [Same State Theophylline B GF 27] | 450 | 442 | 528 | 437 | 352
8 | UGUGCCAACAGUGAUACCAGCGUGGAGUGAUGUUCCGAGGAUCGGAGUGAUGUUCCGAAGCGCCCUUGGCAGCGCAGAAGCGCGA [Exclusion Theophylline B GF 26] | 239 | 156 | 186 | 189 | 182
9 | UGUGUUGUUGUGAUGUUUAGUGUUGUUGGGCAGGAUAUCGUAGAGGCGAGAAGGGCUUGUGUGCUGUAUGAGUGAUGUUUGUAGG [xrrxmullin] | 372 | 238 | 428 | 262 | 322
10 | UGUGUUGUUUUGAUGUUUGGUGUAAGUUGGCAGGAUAUCGUAGAGGCGAGAAGGGCUUUUAUGCGUUAUGAGUGAUGUUUGUAGG [zrrzmullin] | 640 | 330 | 538 | 404 | 699
11 | UGUGUUGUUUUGAUGUUUGGUGUUGCUUGGCAGGAUAUCGUAGAGGCGAGAAGGGCUUGUGAGCGGUAUGAGUGAUGUUUGUAGG [zwwrmullin] | 485 | 282 | 455 | 416 | 336
12 | UGUUCAAGUGAUGUUUGAGACUAGGUGGAUACCAGCGCAUGCAGUCGCCCUUGGCAGCCAGAAACCAACGCCGCGCGCUUCGGCU [theeternabot_sameState_KL_Theo_A_39] | 342 | 325 | 464 | 350 | 334
13 | UGUUUUUACUGAAGGAGCGGCAAUUGAUACGUAGAUAUAGUGAUGUUAUAUAAGAUAGAGAGCCAGGUAGGUCGCAGAAUGAAUC [ExArgB.aD] | 209 | 188 | 190 | 242 | 156
14 | UGUUUUUACUGAAGGAGCGGCAAUUGAUACGUAGAUAUAGUGAUGUUAUAUAAGAUAGAGAGCCAGGUAGGUCGCAGAGUUUUUC [ExArgB.Z] | 167 | 167 | 161 | 179 | 154
15 | UUACCAAGUGAUGUUUGGAAAUAUCCUAGGCAGGAUAUGCGGAAACGCAGAAGGGCCACCUUAUAGUGAAGGAAACUUCGCUAUU [Ex FMN A 2] | 163 | 124 | 140 | 141 | 142
16 | UUACGAGUGAUGUUCGAAUAAAUCCAUUCAGAGGAUAUAGUAUUAACUAGAAGGCUGAAACCAACUUCGAGUCAUGUUCGAGGAU [Same State FMN A GF 2] | 271 | 324 | 277 | 514 | 269
17 | UUAGAGAUCUCAGGAUAUCAGUGAUGUUGGUGUAAAGAUCUGAGAUAGAAUUCUAUCUCAGAUCAAUGAGAAGGGAGAUCUCAUU [AK3.2 Exc FMN B] | 338 | 179 | 192 | 219 | 174
18 | UUAGAGAUCUCAGGAUAUCAGUGAUGUUGGUGUUAAGAUCUGAGAUAGAAUUCUAUCUCAGAUCAAUGAGAAGGGAGAUCUCAUU [AK3 Exc FMN B] | 296 | 132 | 167 | 161 | 152
19 | UUAGCUCUAUAGAGCAAGAGGUAUACUGAUACCAGAGGCUAUAGCCUCCCUUGGCAGCGGAUCGAGUGAUGUUCGUAACCUCAUU [AK4.5 SS Theophylline A] | 616 | 661 | 812 | 724 | 433
20 | UUAGGAGUGGGAGGAUAUCCUAAUGUGGGUGAUGUUAGUGAUGUUGAAAGUGUAGUGAUGUUGUGCGGAGAAGGUCCAGUGUUGA [BDazzled - #11 - Exc. FMN B] | 212 | 133 | 210 | 192 | 157
21 | UUAUAUUUUAUAUUUAGUAGAGCUCUCGCUCGAGGACCGGUACGGCCGCCACUCGAGUGAUGUUCGAGUGGGAGAGCUCUACAUU [AK3.3 EXC Tryptophan A] | 108 | 99.5 | 94.9 | 100 | 181
22 | UUAUCUAUAUUCGAUACCAGUACCCUGUGUGUUGAUCCUUUUAUAAGUGAUGUUUAUGAGUACCCUUGGCAGCGGGUAUGGGUUU [KL-XTheo-B17] | 815 | 734 | 883 | 944 | 712

Row | Sequence | apparent KD of K4 kissing-loop reporter (input ligand: FMN 200 uM) [nM] | apparent KD of K4 kissing-loop reporter (input ligand: arginine 13.2 mM) [nM] | apparent KD of K4 kissing-loop reporter (input ligand: none) [nM] | apparent KD of K4 kissing-loop reporter [1] [nM] | apparent KD of K4 kissing-loop reporter [2] [nM]
23 | UUAUUAAUAACAGAUACCAGUCCAGAAUGAAAACUAUAGUGAUGUUAUAAUAAAGGGAAGGACCCUUGGCAGCUGUAAUAUAUUU [AstrosSSTheB#2] | 525 | 427 | 497 | 452 | 394
24 | UUCAGGUGUUCGGCCGCCACUCCAGUGAUGUUGGAGUGGCUUCACAAGGACCAGGACAAUGUAAGGAGGACCGGGAAUAUCGCAG [Leerat] | 143 | 110 | 131 | 115 | 125
25 | UUCGUAGUAGGAAACUAUUACGAAAAGGAAGGAGCGGCGAAGAAGCCAGGUAGGUCGCCUAUUGACAGUGAUGUUGUUAUAUAGA [#10] | 144 | 239 | 176 | 205 | 162
26 | UUCUGCAUCUCGGCCGCCACUCACUAGUGAUGUUAGUAAGGAGCGACUAGACAUGUCCCGUUGUUGAGGACCGGGAGAGGCUCUU [#14 K4 Tryptophan B Exclusion] | 156 | 164 | 164 | 191 | 170
27 | UUGGAGUGAUGUUCCAUAUCUUGAGCGGAAGGAGCGGCAAAAGUGCCAGGUAGGUCGCCGCAGAAGGUACCAGUGAUGUUGGAAA [Same State Arginine A GF 3] | 132 | 152 | 155 | 156 | 109
28 | UUGGCAGUGAUGUUGCCAGAGUUCACCGAAGGAGCGGGUGAAAACCCAGGUAGGUCGCGGUAGCGGAGUGAUUCUCCGCGAGGGC [Same State Arginine A GF 22] | 90.5 | 91 | 86.2 | 93.7 | 91.4
29 | UUGUAAAAGUCGGCCGCCACUCCGGGCCCUAUAAAUGGGCGCAGUGAUGUUGCGGCUAGGCCUCUGAGGACCGGGACUUUAUAGC [Xeismaarbe] | 115 | 85.1 | 125 | 66.8 | 201
30 | UUGUUUUACUGAAGGAGCGGCAAUUGAUACGUAGAUAUAGUGAUGUUAUAUAAGAUAGAGAGCCAGGUAGGUCGCAGAUUUGUUU [ExArgB.U] | 221 | 193 | 188 | 183 | 173
31 | UUUAAACAUAGUGAUGUUAUGUAACAAUGACGAGGACCGGUACGGCCGCCACUCGAGAGAGAUGAUGGUAAAAUAAAUAAUUUUC [#10 K4 Tryptophan A Same State] | 105 | 124 | 107 | 113 | 90.6
32 | UUUAACGAGUGAUGUUCGAAAAGUAAUGGUUAGGAUAUCGUUUUUUCGAGAAGGAACCUCGAAGUGAUACGAAAGUAUCGCUUCG [FMN A 2] | 173 | 428 | 264 | 466 | 240
33 | UUUAUUAAGACGGCCGCCACUGAUUCAUAGUGAUGUUAUGAUAUAAUUUUAGUGAUUUUGAUUAGCAGGACCGGGUCAAUUAUUA [JR_ExcTryptoB_Sub016] | 221 | 179 | 196 | 194 | 172
34 | UUUCGGCCCAGUGAUGUUGGGUGGAGGCGGCGAGGACCGGUACGGCCGCCACUCGGCGCACUGGCGGAGUGAUGUUUCGUGUAUA [Same State Tryptophan A GF 14] | 697 | 592 | 752 | 708 | 834
35 | UUUCGUUGAAGUGAUACCAGACUUGAAAGUGAUGUUUUCCAAUAAUUUAAAUUAUUAGCUGUCCCUUGGCAGCACAGUUUAUUUA [JR_ExcTheophyB_Sub007] | 255 | 371 | 327 | 443 | 208
36 | UUUCGUUUCGUCUGACAUAAUUGGCUAGAAGGAGCGGUAAAAUUACCAGGUAGGUCGCUAGCCCAGUGAUGUUGGGACUAGCAUA [Onqudi] | 148 | 154 | 133 | 156 | 171
37 | UUUGGAUUGCGCGAAGAGUGCAAGCGCCAACGAGGACCGGUACGGCCGCCACUCGCGGAGGAGUCCAGUGAUGUUGGACGGCCCG [Laraones] | 271 | 276 | 281 | 290 | 185
38 | UUUGGUUUCUCGGCCGCCACUCGUUGGUUAUGGGCUUCAGGGAUAUAGUGAUGUUAUGUAUAGAAGAGGACCGGGAGAAGGUUUG [ExTryptoB.Dt] | 343 | 343 | 318 | 408 | 301
39 | UUUGGUUUCUCGGCCGCCACUCGUUGUCUAUCGGCUUCAGGGAUAUAGUGAUGUUAUGUAUAGAAGAGGACCGGGAGAAGGUUCU [ExTryptoB.Dx] | 280 | 267 | 347 | 307 | 182
40 | UUUGUAUAGGGAAGGAGCGUGAAUGAUAAUGAAUAUAGUGAUGUUAUAUAGAAGAAAGAAUCACAGGUAGGUCGCCCGGAGGAGG [SSArgB.I] | 198 | 234 | 1000 | 456 | 247
41 | UUUGUAUCGGGAAGGAGCGUGAAUGAUAAUGAAUAUAGUGAUGUUAUAUAUAAGAACGAAUCACAGGUAGGUCGCCCGGAUGACU [SSArgB.O] | 747 | 555 | 515 | 729 | 364
42 | UUUGUAUCGGGAAGGAGCGUGAAUGAUAAUGGAUAUAGUGAUGUUAUAUAUAAGAACGAAUCGCAGGUAGGUCGCCCGGAUGACU [SSArgB.Q] | 431 | 388 | 413 | 400 | 252
43 | UUUUAAAUAUCUGAUACCAGAGAAAAUAUAUGUAGUGAUGUUAUAUACAAAAUAAUUAAGCUCCCUUGGCAGCAGUAUUAAUUUU [AstrosExc-TheB#3] | 612 | 658 | 946 | 705 | 541
